In article PMC10410706 (Proceedings of the National Academy of Sciences of the …, 2023):

T1: Smaug NTD (Drosophila melanogaster, UniProt Q23972 70-281)
T1 sequence: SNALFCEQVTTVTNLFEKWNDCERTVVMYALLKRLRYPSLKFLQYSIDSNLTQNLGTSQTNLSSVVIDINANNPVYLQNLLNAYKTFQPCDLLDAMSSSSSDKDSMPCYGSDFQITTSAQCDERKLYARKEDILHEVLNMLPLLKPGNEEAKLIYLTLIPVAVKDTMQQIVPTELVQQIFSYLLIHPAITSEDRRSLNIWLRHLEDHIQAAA

B1: Smaug 73-278Δ156-196 (Smaug part of the single-chain crystallisation construct) (domain or fragment, Drosophila, UniProt Q23972 73-278, looked up)
chain: LFCEQVTTVTNLFEKWNDCERTVVMYALLKRLRYPSLKFLQYSIDSNLTQNLGTSQTNLSSVVIDINANNPVYLQNLLNAYKTARKEDILHEVLNMLPLLKPGNEEAKLIYLTLIPVAVKDTMQQIVPTELVQQIFSYLLIHPAITSEDRRSLNIWLRHLEDHIQ
B2: Smaug NTD (aa 70-281, His-tag removed) (domain or fragment, Drosophila, UniProt Q23972 70-281, looked up)
chain: T1 sequence
B3: Smoothened 970-1003 synthetic peptide (wild-type) (peptide)
peptide: VPSYGEDELQQAMRLLNAASRQRTEAANEDFGGT
B4: R13C (ssRNA)
RNA: AGCACCGUAAAGC
B5: Smo 970-1003 (Smoothened part of the single-chain crystallisation construct) (peptide)
chain: B3 peptide

Experiments:
crystal structure = biological target: the molecule itself; assay: crystal structure
[1] = biological target: B3; assay: ITC
[2] = biological target: B2; assay: ITC
Smaug NTD = biological target: T1, Smaug NTD; assay: EMSA
[3] = biological target: B1; assay: crystal structure

Binder: B1
- binding result (crystal structure): binds

Binder: B2
- stoichiometry N [1]: 1

Binder: B3
- Kd [2]: 800 nM

Binder: B4
- binding result (Smaug NTD): no binding

Binder: B5
- binding result [3]: binds
